Test results reported in publication PMC5753033, “WH2 and proline‐rich domains of WASP‐family proteins collaborate to accelerate actin filament elongation” (The EMBO Journal, 2017).

Target: Atto540Q-labeled actin monomers (Acanthamoeba castellanii), Latrunculin B-stabilized (Acanthamoeba castellanii, Atto540Q-NHS at reactive lysine residues)
Experiment: FRET or BRET; 7.5 nM Alexa488-labeled WAVE1 variant titrated with LatB-stabilized Atto540Q-actin; donor quenching; room temperature; 20 mM HEPES pH 7.0, 100 mM KCl, 1.5 mM MgCl2, 1 mM EGTA, 1 mM ATP; single site binding curve
Settings: both partners purified

B1: Alexa488-labeled WAVE1 P_CA (WH2-delete construct) (domain or fragment)
chain: RPHEPPPPPPMHGAGDAKPIPTSISSATGLIENRPQSPATGRTPVFVSPTPPPPPPPLPSALSTSSLRASMTSTPPPPVPPPPPPPATALQAPAVPPPPAPLQIAPGVLHPAPPPIAPPLVQPSPPVARAAPVSETVPVHPLPQGEVQGLPPPPPPPPLPPPGIRPSSPVTVTALAHPPSGLHPTPSTAPGPHVPLMPPSPPSQVIPASEPKRHPSCLPVISDEEQREQEAKHERIENDVATILSRRIAVEYSDSEDDSEFDEVDWLE
modifications: Alexa488-maleimide on Cys490
- Kd: 425 nM
